B1: Hairpin Ribozyme (parent)
chain: GUCCUCUUUCACGUGCGCGUGAAAGAGAGAAGUGAACCAGAGAAACACACGUUGUGGUAUAUUACCUGGUA

Variants of: B1
Test: self-cleavage, relative activity (ratio to wild type); higher = more cleavage; co-transcriptional

| Variant | self-cleavage |
| --- | --- |
| A44C C65G | 0.17 |
| G42A A47U | 0.0842 |
| A43G C46U | 0.0992 |
| A41U A45C | 0.258 |
| A41U G68A | 0.504 |
| A43U C50A | 0.0923 |
| G42A C50A | 0.186 |
| G42C | 0.318 |
| G42A | 0.223 |
| G42U | 0.289 |
| G42A C48A | 0.0835 |
| A41U C48U | 0.132 |
| A41U C48A | 0.31 |
| A44U A45C | 0.321 |
| A43G A44C | 0.0882 |
| G42C A49U | 0.155 |
| G42C A49G | 0.244 |
| G42U U70G | 0.105 |
| G42C A64C | 0.252 |
| G42C A64U | 0.0972 |
| A43C U63G | 0.117 |

| Variant | self-cleavage |
| --- | --- |
| A44C A59U | 0.103 |
| A43G A45U | 0.0816 |
| A43G A59U | 0.157 |
| A43G A59C | 0.153 |
| A44C U62C | 0.279 |
| A44G C48G | 0.115 |
| A44G C48U | 0.0899 |
| A43U G54U | 0.129 |
| A45G G68C | 0.136 |
| A45G G57U | 0.175 |
| A44U U70C | 0.0872 |
| A44U U70A | 0.0951 |
| A45C U62G | 0.0741 |
| A45C U62A | 0.332 |
| A44U U52A | 0.237 |
| G42A A59C | 0.195 |
| A45C U60G | 0.165 |
| A43U U70A | 0.145 |
| A43G U55A | 0.0267 |
| A43G U55C | 0.201 |
| A43G C65U | 0.224 |

| Variant | self-cleavage |
| --- | --- |
| A41G U67A | 0.527 |
| A41U U53A | 1.28 |
| A44C A49G | 0.22 |
| A43G A61G | 0.188 |
| A43G A61U | 0.169 |
| A43C A45G | 0.116 |
| A43C A45U | 0.203 |
| A41U C50A | 0.673 |
| A44U U60G | 0.179 |
| A45G G54U | 0.2 |
| A45G G54A | 0.218 |
| A44G G56U | 0.226 |
| A43C C66A | 0.0928 |
| A44G A47G | 0.17 |
| A44G U67A | 0.161 |
| A44G U67G | 0.149 |
| G42C C50G | 0.0792 |
| G42C C50U | 0.0822 |
| G42U G69A | 0.142 |
| G42U G69C | 0.136 |
| G42U G69U | 0.136 |

| Variant | self-cleavage |
| --- | --- |
| G42U A44G | 0.267 |
| A43G G57C | 0.195 |
| A43C A71G | 0.186 |
| A45C G69U | 0.215 |
| A45C G69C | 0.193 |
| A44C U60A | 0.172 |
| A45C A71C | 0.453 |
| A45C A71U | 0.184 |
| A44G U55A | 0.0483 |
| A44G U55C | 0.0374 |
| A44C G54U | 0.194 |
| A44C G54A | 0.184 |
| A44C G54C | 0.0581 |
| G42C C46G | 0.103 |
| G42C A61C | 0.133 |
| A41G U62G | 0.325 |
| A43C C48A | 0.135 |
| A43C C50U | 0.13 |
| A41G U63A | 0.328 |
| A44G C66U | 0.0408 |
| A44C G68U | 0.126 |
